Patent US7960513B2, “Antibody against a human ADAM protease” (Monash University, priority 2004, dated 2011)

Molecular target: T1, EphA3 (Homo sapiens, UniProt P29320)
T1 construct: expressed in transfected cells
T1 sequence (P29320 21-983): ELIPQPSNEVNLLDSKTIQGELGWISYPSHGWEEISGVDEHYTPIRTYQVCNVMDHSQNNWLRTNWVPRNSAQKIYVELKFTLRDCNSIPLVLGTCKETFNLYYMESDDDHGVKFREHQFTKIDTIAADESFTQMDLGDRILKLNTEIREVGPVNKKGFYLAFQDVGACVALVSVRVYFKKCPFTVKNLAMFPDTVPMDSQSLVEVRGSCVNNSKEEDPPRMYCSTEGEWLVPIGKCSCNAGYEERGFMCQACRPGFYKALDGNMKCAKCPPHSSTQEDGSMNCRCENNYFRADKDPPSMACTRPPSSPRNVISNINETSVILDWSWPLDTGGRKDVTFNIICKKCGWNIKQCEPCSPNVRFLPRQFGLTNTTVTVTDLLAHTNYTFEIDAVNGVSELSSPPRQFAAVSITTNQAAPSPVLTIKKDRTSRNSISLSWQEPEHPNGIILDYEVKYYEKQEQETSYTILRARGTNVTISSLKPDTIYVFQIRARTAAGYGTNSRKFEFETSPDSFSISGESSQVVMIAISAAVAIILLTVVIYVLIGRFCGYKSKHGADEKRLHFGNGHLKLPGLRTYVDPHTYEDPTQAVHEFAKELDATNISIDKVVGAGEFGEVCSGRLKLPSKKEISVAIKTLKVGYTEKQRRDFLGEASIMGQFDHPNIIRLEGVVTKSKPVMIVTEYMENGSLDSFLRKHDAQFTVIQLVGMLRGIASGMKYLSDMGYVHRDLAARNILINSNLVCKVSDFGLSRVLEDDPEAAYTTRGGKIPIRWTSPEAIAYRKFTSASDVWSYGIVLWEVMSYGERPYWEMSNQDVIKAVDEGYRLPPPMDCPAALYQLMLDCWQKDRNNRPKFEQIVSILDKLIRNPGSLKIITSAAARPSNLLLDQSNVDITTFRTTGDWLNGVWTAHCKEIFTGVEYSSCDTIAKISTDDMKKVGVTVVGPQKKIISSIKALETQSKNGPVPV
Assay: Co-immunoprecipitation from transfected cells, Western blot
Type: cell-based
Conditions: EphA3/293 cells, EEE-A substituted construct
Description: FIG. 1. EphA3-ADAM10 association, ephrin-A5 cleavage and ephrin internalisation. • A. Association of ADAM10 with EphA3 in LiBr melanoma cells and parental or stably transfected EphA3/HEK293 cells. The cells were treated with clustered ephrin-Fc (A5 or A2) or were left untreated (−) prior to lysis. Anti-EphA3 immunoprecipitates from lysates were analysed by Western blot for endogenous ADAM10 (“p” and “m” indicate the pro (unprocessed) and mature (processed) forms of ADAM10). Aliquots from immunoprecipitates were blotted for EphA3 levels to indicate loading (lower panel). […] EphA3/HEK293 or ephrin-A5/HEK293 cells were transfected to express HA-tagged ADAM10ΔPM. Western Blots of anti-HA immuno-precipitates were analysed with antibodies against ephrin-A5 and EphA3, parallel control samples with anti-ADAM10 antibodies. Lysates of ephrin-A5/HEK 293 cells were also extracted with Protein-A Sepharose-bound EphA3 Fc and analysed with anti-ephrin-A5 antibodies. • C. […] Pooled cell lysates and supernatants were pre-cleared with excess Protein-A Sepharose, cleaved ephrin-A5 was extracted using EphA3-Fc coupled to Protein-A Sepharose and analysed by anti-ephrin-A5 immuno-blot. Recombinant, monomeric, single-chain ephrin-A5 (Himanen et al., 2004, Nat Neurosci. 7 501-9; ephrin std) was analysed in parallel. • D. Ephrin-A5 cleavage and internalisation are inhibited by dominant-negative ADAM10. […]

B1: ADAM10Δpro: cell-surface ADAM10Δpro incorporating the EEE-A amino acid substitutions (protein)
chain: SGQPICGNGMVEQGEECDCGYSDQCKDDCCFDANQPEGKKCKLKPGKQCSPSQGPCCTAQCAFKSKSEKCRDDSDCAKEGICNGFTALCPASDPKPNFTDCNRHTQVCINGQCAGSICAKYDLAACTCASSDGKDDKELCHVCCMKKMAPSTCASTGSLQWSKQFSGRTITLQPGSPCNDFRGYCDVFMRCRLVDADGPLARLKKAIFSPQLYENIAEWIVAHWWAVLLMGIALIMLMAGFIKICSVHTPSSNPKLPPPKPLPGTLKRRRPPQPIQQPPRQRPRESYQMGHMRR
modifications: left off: small tags and cut ends
notes: cell-surface ADAM10Δpro incorporating the EEE-A amino acid substitutions
ephrin-independent constitutive association with EphA3: remained unchanged
